Here are results for 63 sequences from the supplement of paper PMC9112550, “Optimization of the antimicrobial peptide Bac7 by deep mutational scanning” (BMC Biology, 2022).
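Further: peptides expressed intracellularly from a pBAD plasmid library in pooled LB shake-flask culture, induced with 0.3% L-arabinose, DNA abundance read by NGS, three biological replicates, DESeq2 with apeglm shrinkage.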

In the data set the test system is Escherichia coli TOP10. In words: shrunken log2 fold change of peptide-encoding DNA abundance (4.5 h post-induction vs induction); higher = less antimicrobial activity (less host growth inhibition). The following applies: time post-induction: 4.5 h; library: site-saturation at positions 5, 18, 19, 20.
For the sequence RRIRGRPPRLPRPRPRPLGSPRP, the “shrunken log2 fold change” value amounted to 0.338.
In the case of RRIRCRPPRLPRPRPRPIIAPRP it was -0.494; in that of RRIRVRPPRLPRPRPRPGMSPRP, 0.303; in that of RRIRCRPPRLPRPRPRPQVSPRP, -0.0343.
In the case of RRIRCRPPRLPRPRPRPVFYPRP it was -0.379.
In the case of RRIRLRPPRLPRPRPRPTSPPRP it was -0.0576.
In the case of RRIRKRPPRLPRPRPRPNQNPRP, the “shrunken log2 fold change” value was 1.18.
As for RRIRTRPPRLPRPRPRPFFCPRP, the “shrunken log2 fold change” value was -0.0401.
In the case of RRIRHRPPRLPRPRPRPNTLPRP it was -0.0867; in that of RRIRNRPPRLPRPRPRPKMHPRP, -0.0913.
In the case of RRIRLRPPRLPRPRPRPRVFPRP, the “shrunken log2 fold change” value was -0.0171.
In the case of RRIRIRPPRLPRPRPRPCRCPRP it was -0.319; in that of RRIRWRPPRLPRPRPRPGWNPRP, 0.238; in that of RRIRFRPPRLPRPRPRPYAIPRP, -0.536.
Consider RRIRFRPPRLPRPRPRPCPPPRP, for which the “shrunken log2 fold change” value is -0.131.
Then RRIRKRPPRLPRPRPRPGAWPRP, with 0.364.
Consider RRIRRRPPRLPRPRPRPTQGPRP, for which the “shrunken log2 fold change” value stood at 0.935.
Turning to RRIRSRPPRLPRPRPRPWVPPRP, the “shrunken log2 fold change” value was determined as 0.177.
In the case of RRIRRRPPRLPRPRPRPKFQPRP it was -0.00642; in that of RRIRHRPPRLPRPRPRPYPHPRP, -0.495; in that of RRIRFRPPRLPRPRPRPREFPRP, 0.0793.
On to RRIRMRPPRLPRPRPRPDIFPRP, for which the “shrunken log2 fold change” value turned out to be 0.118.
In the case of RRIRHRPPRLPRPRPRPMPSPRP it was 0.0183.
Then RRIRTRPPRLPRPRPRPIGGPRP, with -0.000462; and RRIRDRPPRLPRPRPRPPSVPRP, with 0.258.
With RRIRTRPPRLPRPRPRPEFEPRP, the “shrunken log2 fold change” value came to 0.0862.
Turning to RRIRFRPPRLPRPRPRPYDAPRP, the “shrunken log2 fold change” value was -1.06.
In the case of RRIRRRPPRLPRPRPRPIFFPRP it was 0.261; in that of RRIRWRPPRLPRPRPRPSYCPRP, 0.366.
In the case of RRIRARPPRLPRPRPRPRMGPRP it was 0.692; in that of RRIRKRPPRLPRPRPRPSMEPRP, 0.181; in that of RRIRLRPPRLPRPRPRPYCRPRP, -0.256.
In the case of RRIRKRPPRLPRPRPRPCKDPRP it was 0.0741.
Consider RRIRVRPPRLPRPRPRPWNVPRP, for which the “shrunken log2 fold change” value was -0.0441.
In the case of RRIRCRPPRLPRPRPRPGNEPRP it was -0.154; in that of RRIRWRPPRLPRPRPRPKHGPRP, 0.186; in that of RRIRLRPPRLPRPRPRPDPWPRP, 0.0779.
RRIRQRPPRLPRPRPRPFVLPRP: the “shrunken log2 fold change” value is -0.277.
Turning to RRIRMRPPRLPRPRPRPVNDPRP, the “shrunken log2 fold change” value was -0.00185.
Then RRIRRRPPRLPRPRPRPVYTPRP, with 0.0292.
In the case of RRIRVRPPRLPRPRPRPKLIPRP, the “shrunken log2 fold change” value is -0.198.
Then RRIRRRPPRLPRPRPRPGVWPRP, with 0.47; and RRIRGRPPRLPRPRPRPDMNPRP, with 1.35.
Then RRIRTRPPRLPRPRPRPKRNPRP, with 0.366; and RRIRRRPPRLPRPRPRPFDRPRP, with 0.542.
In the case of RRIRLRPPRLPRPRPRPYVAPRP it was -0.602.
In the case of RRIRIRPPRLPRPRPRPGLSPRP, the “shrunken log2 fold change” value was -0.0218.
For the sequence RRIRLRPPRLPRPRPRPEHMPRP, the “shrunken log2 fold change” value was -0.336.
With RRIRTRPPRLPRPRPRPHQGPRP, the “shrunken log2 fold change” value is -0.0325.
As for RRIRMRPPRLPRPRPRPDMAPRP, the “shrunken log2 fold change” value was 1.86.
For RRIRMRPPRLPRPRPRPWENPRP, the “shrunken log2 fold change” value is -0.0294.
In the case of RRIRVRPPRLPRPRPRPMNCPRP it was 0.0359; in that of RRIRWRPPRLPRPRPRPMHRPRP, -0.0497; in that of RRIRCRPPRLPRPRPRPFNWPRP, -0.648.
In the case of RRIRGRPPRLPRPRPRPHLPPRP it was 0.0386; in that of RRIRRRPPRLPRPRPRPIPVPRP, 0.265.
Then RRIRPRPPRLPRPRPRPASFPRP, with 0.0681; and RRIRCRPPRLPRPRPRPWSWPRP, with 0.0159; and RRIRDRPPRLPRPRPRPRQCPRP, with -0.0309.
In the case of RRIRERPPRLPRPRPRPTPGPRP, the “shrunken log2 fold change” value was found to be 0.337.
Then RRIRTRPPRLPRPRPRPYVPPRP, with -0.1; and RRIRERPPRLPRPRPRPLQGPRP, with -0.179.
Then RRIRLRPPRLPRPRPRPGWPPRP, with 0.406.
